Measured values from the supplement of paper PMC9170038.

Test system: MS2 coat protein
Assay: apparent KD of MS2 coat protein; designed switch direction (-1 OFF switch, 1 ON switch): -1; higher = weaker reporter binding
Summary of the method: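 Each step of the titration lasted 0.8–1.5 h at the lowest concentration and 10–20 min at the highest. The protein, SNAP-549-labelled MS2 coat protein, went from 0.7 or 1.5 nM doubling to 3 µM over RNA switches transcribed on Illumina chips by stalled E. coli RNA polymerase. Normalised cluster fluorescence was curve-fitted, and the per-design median over clusters is given as apparent KD.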

[1] = input ligand: microRNA oligo, concentration not stated
[2] = Eterna round: R95, input ligand: microRNA oligo, concentration not stated
[3] = Eterna round: R95, input ligand: FMN 200 uM
[4] = Eterna round: R95, input ligand: none

| Sequence | apparent KD of MS2 coat protein (input ligand: FMN 200 uM) | apparent KD of MS2 coat protein (input ligand: none) | apparent KD of MS2 coat protein [1] | apparent KD of MS2 coat protein [2] | apparent KD of MS2 coat protein [3] | apparent KD of MS2 coat protein [4] |
| --- | --- | --- | --- | --- | --- | --- |
| AACCUAUGAGGAUAUACAUGAGGAUCACCCAUGUGUGAGCGUAUCUCAUCACCAAAUUGUAGAAGGCAUGGCGG [Eternabot (L1) Solution 38] (Eterna round: R97, puzzle: Exclusion 3) | 68.3 nM | 41.4 nM | – | – | – | – |
| AACCUGAGGCAAAGCUUUAGGUGUACAUGAGGAUCACCCAUGUAGGAUAUGGUAGGCUUUGCUUACCAGAAGGACAUUGGCGUA [Mat - Exclusion NG 3 - Mod of JL - D42] (Eterna round: R96, puzzle: Exclusion NG 3) | 345 nM | 91.7 nM | 70.5 nM | – | – | – |
| AACCUGAGGCUUUGCUUUAGGUCUACAUGAGGAUCACCCAUGUAGGAUAUGGUAGGCUUUGCUUACCAGAAGGACAUGGUAAUU [JL ENG3 1.13] (Eterna round: R96, puzzle: Exclusion NG 3) | 323 nM | 65.5 nM | 47.7 nM | – | – | – |
| AACCUGAGGCUUUGCUUUAGGUGAACAUGAGGAUCACCCAUGUAGGAUAUGGUAGGCUUUGCUUACCAGAAGGACAUAUUAAUU [JL ENG3 1.12] (Eterna round: R96, puzzle: Exclusion NG 3) | – | – | 30.6 nM | – | – | – |
| AACCUGAGGCUUUGCUUUAGGUGUACAUGAGGAUCACCCAUGUAGGAUAUGGUAGGCAAAGCUUACCAGAAGGACAUUGGCGUA [Mat - Exclusion NG 3 - Mod of JL - D40] (Eterna round: R96, puzzle: Exclusion NG 3) | 342 nM | 107 nM | 94.7 nM | – | – | – |
| AACCUGAGGCUUUGCUUUAGGUGUACAUGAGGAUCACCCAUGUAGGAUAUGGUAGGCUUUGCUUACCAGAAGGACAUUGGCGUA [Mat - Exclusion NG 3 - Mod of JL - D39] (Eterna round: R96, puzzle: Exclusion NG 3) | 144 nM | 77.2 nM | 66.4 nM | – | – | – |
| AACCUGAGGCUUUGCUUUAGGUUUACAUGAGGAUCACCCAUGUAGGAUAUGGUAGGCUUUGCUUACCAGAAGGACAUGUUAAUU [Mat - Exclusion NG 3 - Mod of JL - D26] (Eterna round: R96, puzzle: Exclusion NG 3) | 241 nM | 44.2 nM | 25 nM | – | – | – |
| AACGAGGCAGGAUAUACAUGAGGAUCACCCAUGUGCUUGCAUGGCGUGGGACGUCAACGUAGAAGGGCCAUGCC [EX3 #67] (Eterna round: R97, puzzle: Exclusion 3) | 43.1 nM | 45.6 nM | – | – | – | – |
| AACGAUACGCUCAUAAGAACAUGAGGAUCACCCAUGUGUGGUGAGGAUAUCCACCCAGAGGGAAAGGAGAAGGUACCAGUGGGC [Ries] (Eterna round: R96, puzzle: Exclusion NG 3) | 31.3 nM | 61 nM | 61.8 nM | – | – | – |
| AACGAUCUAGGAUAUACAUGAGGAUCACCCAUGUAAGAGCCCAAACCAGGCUCCCUCUGUAGAAGGAGGUCAAA [Teleerre] (puzzle: Exclusion 3) | – | – | – | 40.8 nM | – | – |
| AACGAUCUAGGAUAUACAUGAGGAUCACCCAUGUAAGAGCCCGAACCGGGCUCCCUCUGUAGAAGGAGGUCAAA [Rileququve] (puzzle: Exclusion 3) | – | – | – | 27.3 nM | – | – |
| AACGCGUCAGGAUAUAGCGAAACUUAGGUAGUACAACCAUACUAGAAGGGACAUGAGGAUCACCCAUGUGGGUA [JR_Exc004_Sub210] (Eterna round: R96, puzzle: Exclusion 4) | 171 nM | 142 nM | 104 nM | – | – | – |
| AACGGGACAGGAUAUGUCACGGAGAACAUGAGGAUCACCCAUGUGGCUUCGUGGUCUGUUGCAGAAGGGUCGAAAU [Vebedi] (Eterna round: R97, puzzle: Exclusion 5) | 19.6 nM | 11.9 nM | – | – | – | – |
| AACGUCUAGGUAGGAUAUCCACCAACAGGUGGAAGGAUAUGUACGCAGAAGGUUCGCCAACAGGCGGAGAAGGACCUACGCGUA [pwkr exNG2 2xF7 2xFMN.30] (Eterna round: R96, puzzle: Exclusion NG 2) | 274 nM | 340 nM | 57.6 nM | – | – | – |
| AACGUGGCUUAGGAUAUUGCUACGCAAAAGUAACAAGAAGGAAGCACAUGAGGAUCACCCAUGUGAUUCGUUGA [Larevean] (puzzle: Exclusion 6) | – | – | – | 12.2 nM | 27.1 nM | 13.3 nM |
| AACUAUGAAGGAUAUACAUGAGGAUCACCCAUGUUGAACUUGGCAUGUGCUCACAGAUGUAGAAGGUCAACCGU [Eternabot (Original) Solution 22] (Eterna round: R97, puzzle: Exclusion 3) | 128 nM | 43 nM | – | – | – | – |
| AACUCACAUGAGGAUCACCCAUGUGAGGAUAUGGAUUCGCUGGCCGUAGCCAGUGGAUCCAGAAGGCGCGUGAU [JL-ex1-4.26] (Eterna round: R97, puzzle: Exclusion 1) | 56.7 nM | 56.9 nM | – | – | – | – |

| Sequence | apparent KD of MS2 coat protein (input ligand: FMN 200 uM) | apparent KD of MS2 coat protein (input ligand: none) | apparent KD of MS2 coat protein [1] | apparent KD of MS2 coat protein [2] | apparent KD of MS2 coat protein [3] | apparent KD of MS2 coat protein [4] |
| --- | --- | --- | --- | --- | --- | --- |
| AACUCACAUGAGGAUCACCCAUGUGAGGAUAUGUGAGUGUGUAUGUUAUUAUAUAUUUAUAGAAGGCGCGUGAU [JR_Exc1_Sub029] (Eterna round: R97, puzzle: Exclusion 1) | 24.5 nM | 23.1 nM | – | – | – | – |
| AACUCAUGUUCAGGAUAUCGCGUUCCAAAGACAUGAGAAGGGAACAUGAGGAUCACCCAUGUACCCGGUCUCAGACCGGGCUUC [Tiriaron] (Eterna round: R96, puzzle: Exclusion NG 1) | 115 nM | 64.1 nM | 41.8 nM | – | – | – |
| AACUCUAAGCAGGAUAUCUAGCAAACGUCCGCAAGAGAAGGGCUUACAUGAGGAUCACCCAUGUAAGGAUGAUC [Reorzainar] (puzzle: Exclusion 6) | – | – | – | 26 nM | 48.8 nM | 24.9 nM |
| AACUGGACAGGAUAUGUUCUUGAGCACUUGAGGAUCACCCAAGUCAUCAAGAACUCAGGCACAGAAGGGUUUAUGC [salish99_ex5_r4_003] (Eterna round: R97, puzzle: Exclusion 5) | 19 nM | 13.4 nM | – | – | – | – |
| AAGAAACAUGAGGAUCACCCAUGUGAGGAUAUGAAAAAGAAAAGAAAAGAAAGAAGGCUCAGAAGGCACAAAGG [salish99-ex1_r3_029] (puzzle: Exclusion 1) | – | – | – | 24.1 nM | 30.5 nM | 28.6 nM |
| AAGAAACAUGAGGAUCACCCAUGUGAGGAUAUGAAAAAGAAAAGAAAAGAAAGAAGUUUCAGAAGGCACAAAGG [salish99-ex1_r3_024] (puzzle: Exclusion 1) | – | – | – | 41.2 nM | 83.8 nM | 44.9 nM |
| AAGAAACAUGAGGAUCACCCAUGUGAGGAUAUGACCCGCCCGGCGUAAGCAAAAUAAAUCAGAAGGCACAAAGG [salish99_ex1_r4_007] (Eterna round: R97, puzzle: Exclusion 1) | 35.5 nM | 37.3 nM | – | – | – | – |
| AAGAAACAUGAGGAUCACCCAUGUGAGGAUAUGACUAAGAAAAGAAAAGAAAGAAGACUCAGAAGGCACAAAGG [salish99-ex1_r3_075] (puzzle: Exclusion 1) | – | – | – | 54.5 nM | 68.9 nM | 46.8 nM |
| AAGAAACAUGAGGAUCACCCAUGUGAGGAUAUGAUAAAGAAAAGAAAAGAAAGAAGAGUCAGAAGGCACAAAGG [salish99-ex1_r3_037] (puzzle: Exclusion 1) | – | – | – | 35.8 nM | 71.6 nM | 47.4 nM |
| AAGAAACAUGAGGAUCACCCAUGUGAGGAUAUGGCCCGCCCGGCGUGAGCUGGUUUAAUCAGAAGGCACAAAGG [salish99_ex1_r4_014] (Eterna round: R97, puzzle: Exclusion 1) | 44.8 nM | 38.1 nM | – | – | – | – |
| AAGAAACAUGAGGAUCACCCAUGUGAGGAUAUGUAAAAGAAAAUAAAAUAAAUAAUAAACAGAAGGCACAAAGG [Mat - Mod of Hog D18] (puzzle: Exclusion 1) | – | – | – | 33.6 nM | 58.2 nM | 40.9 nM |
| AAGAAACGAGGAUAUACAGUUGAGUGAGGGAUGUUAGUGUUACAUGAGGAUCACCCAUGUAGAAGGCGUGAGAG [JR_Exclu2_Sub091] (puzzle: Exclusion 2) | – | – | – | 32.2 nM | 66.4 nM | 36.2 nM |
| AAGAAAGGUGACAUGGGUGACAUGAGGAUCACCCAUGUUACAAGCUUGUUGCUCGUCUUAUAAUUAACCCAUGUCAC [LRO Sensor-off var1-20 mod of Stov1-13-A1 by Brourd] (Eterna round: R97, puzzle: Sensor, turn-off variant 1) | 15.6 nM | 15.6 nM | – | – | – | – |
| AAGAACGUGCAAGGAUAUCUCCACCAAACCGGCAGAGAAGGUGCACAUGAGGAUCACCCAUGUGACCUAAAGCUCUUAUGAGCC [Raledigeen] (Eterna round: R96, puzzle: Exclusion NG 1) | 30.6 nM | 17.3 nM | 13.1 nM | – | – | – |
| AAGAACUGAGGAUAUGCAAAAGGGAAAGCUGAUCCUCAUCUACAUGAGGAUCACCCAUGUAGAAGGCGGGAAAU [Aveerve] (Eterna round: R96, puzzle: Exclusion 2) | 108 nM | 74 nM | 50.7 nM | – | – | – |
| AAGAAGAAGUAAGGAUAUGAAGAUUUGGUGAUGACAUGAGGAUCACCCAUGUGAAAACAAUAAGAUCAGAAGGUAUAAGAAGAA [AK ExNG2-2.2] (Eterna round: R96, puzzle: Exclusion NG 2) | 104 nM | 112 nM | 61.6 nM | – | – | – |
